Reference: publication PMC5482882, “Aldosterone Modulates the Association between NCC and ENaC” (Scientific Reports, 2017)

B1: γ-pACT (full-length γENaC fused to the VP16 activation domain) (natural protein, UniProt Q9WU39 1-655, looked up)
chain: MAPGEKIKAKIKKNLPVRGPQAPTIKDLMHWYCLNTNTHGCRRIVVSRGRLRRLLWIAFTLTAVALIIWQCALLVFSFYTVSVSIKVHFQKLDFPAVTICNINPYKYSAVSDLLTDLDSETKQALLSLYGVKDVLDSTPRKRREAGSMRSTWEGTPPRFLNLIPLLVFNENEKGKARDFFTGRKRKISGKIIHKASNVMHVHESKKLVGFQLCSNDTSDCATYTFSSGINAIQEWYKLHYMNIMAQVPLEKKINMSYSAEELLVTCFFDGMSCDARNFTLFHHPMYGNCYTFNNRENATILSTSMGGSEYGLQVILYINEDEYNPFLVSSTGAKVLVHQQNEYPFIEDVGTEIETAMSTSIGMHLTESFKLSEPYSQCTEDGSDVPVTNIYNAAYSLQICLYSCFQTKMVEKCGCAQYSQPLPPAANYCNYQQHPNWMYCYYQLYQAFVREELGCQSVCKQSCSFKEWTLTTSLAQWPSEASEKWLLNVLTWDQSQQINKKLNKTDLAKLLIFYKDLNQRSIMESPANSIEMLLSNFGGQLGLWMSCSVVCVIEIIEVFFIDFFSIIARRQWQKAKDWWARRRTPPSTETPSSQQGQDNPALDTDDDLPTFTSAMRLPPAPEAPVPGTPPPRYNTLRLDSAFSSQLTDTQLTNEF
notes: epithelial sodium channel (ENaC) gamma subunit, full-length clone in pACT; source: COS-7, transiently transfected, mammalian two-hybrid fusion
B2: epithelial sodium channel alpha subunit (αENaC) (natural protein, UniProt Q61180 1-699, looked up)
chain: MLDHTRAPELNLDLDLDVSNSPKGSMKGNNFKEQDLCPPLPMQGLGKGDKREEQALGPEPSEPRQPTEEEEALIEFHRSYRELFQFFCNNTTIHGAIRLVCSKHNRMKTAFWAVLWLCTFGMMYWQFALLFEEYFSYPVSLNINLNSDKLVFPAVTVCTLNPYRYTEIKEDLEELDRITEQTLFDLYKYNSSYTRQAGGRRRSTRDLRGALPHPLQRLRTPPPPNPARSARSASSSVRDNNPQVDRKDWKIGFQLCNQNKSDCFYQTYSSGVDAVREWYRFHYINILSRLPDTSPALEEEALGSFIFTCRFNQAPCNQANYSQFHHPMYGNCYTFNNKNNSNLWMSSMPGVNNGLSLTLRTEQNDFIPLLSTVTGARVMVHGQDEPAFMDDGGFNVRPGVETSISMRKEALDSLGGNYGDCTENGSDVPVKNLYPSKYTQQVCIHSCFQENMIKKCGCAYIFYPKPKGVEFCDYLKQSSWGYCYYKLQAAFSLDSLGCFSKCRKPCSVTNYKLSAGYSRWPSVKSQDWIFEMLSLQNNYTINNKRNGVAKLNIFFKELNYKTNSESPSVTMVSLLSNLGSQWSLWFGSSVLSVVEMAELIFDLLVITLIMLLHRFRSRYWSPGRGARGAREVASTPASSFPSRFCPHPTSPPPSLPQQGTTPPLALTAPPPAYATLGPSASPLDSAVPGSSACAPAMAL
notes: epithelial sodium channel (ENaC) alpha subunit, endogenous in mouse mDCT15 cells and mouse kidney cortex; Detected by immunoblot with an αENaC antibody in the NCC precipitate; source: endogenous, mDCT15 whole cell lysate; endogenous, mouse kidney cortex homogenate
B3: α-pACT (full-length αENaC fused to the VP16 activation domain) (natural protein, UniProt Q61180 1-699, looked up)
chain: B2 chain
notes: epithelial sodium channel (ENaC) alpha subunit, full-length clone in pACT; source: COS-7, transiently transfected, mammalian two-hybrid fusion

Key:
Conditions in all cases: partners not purified
[1] = target: T1, NCC-pBIND (full-length NCC fused to the GAL4 DNA-binding domain) (UniProt P59158 1-1002); assay: two-hybrid; Checkmate mammalian two-hybrid in transiently transfected COS-7 cells; NCC-pBIND (GAL4 DNA-binding domain) with α- or γ-pACT (VP16) and pG5luc; firefly luciferase normalized to Renilla, fold change of negative control (empty pBIND + pACT); with or without co-transfected SGK1 or WNK4; read 48 hours after transfection
T1 construct: source: COS-7, transiently transfected, mammalian two-hybrid fusion
T1 sequence (looked up): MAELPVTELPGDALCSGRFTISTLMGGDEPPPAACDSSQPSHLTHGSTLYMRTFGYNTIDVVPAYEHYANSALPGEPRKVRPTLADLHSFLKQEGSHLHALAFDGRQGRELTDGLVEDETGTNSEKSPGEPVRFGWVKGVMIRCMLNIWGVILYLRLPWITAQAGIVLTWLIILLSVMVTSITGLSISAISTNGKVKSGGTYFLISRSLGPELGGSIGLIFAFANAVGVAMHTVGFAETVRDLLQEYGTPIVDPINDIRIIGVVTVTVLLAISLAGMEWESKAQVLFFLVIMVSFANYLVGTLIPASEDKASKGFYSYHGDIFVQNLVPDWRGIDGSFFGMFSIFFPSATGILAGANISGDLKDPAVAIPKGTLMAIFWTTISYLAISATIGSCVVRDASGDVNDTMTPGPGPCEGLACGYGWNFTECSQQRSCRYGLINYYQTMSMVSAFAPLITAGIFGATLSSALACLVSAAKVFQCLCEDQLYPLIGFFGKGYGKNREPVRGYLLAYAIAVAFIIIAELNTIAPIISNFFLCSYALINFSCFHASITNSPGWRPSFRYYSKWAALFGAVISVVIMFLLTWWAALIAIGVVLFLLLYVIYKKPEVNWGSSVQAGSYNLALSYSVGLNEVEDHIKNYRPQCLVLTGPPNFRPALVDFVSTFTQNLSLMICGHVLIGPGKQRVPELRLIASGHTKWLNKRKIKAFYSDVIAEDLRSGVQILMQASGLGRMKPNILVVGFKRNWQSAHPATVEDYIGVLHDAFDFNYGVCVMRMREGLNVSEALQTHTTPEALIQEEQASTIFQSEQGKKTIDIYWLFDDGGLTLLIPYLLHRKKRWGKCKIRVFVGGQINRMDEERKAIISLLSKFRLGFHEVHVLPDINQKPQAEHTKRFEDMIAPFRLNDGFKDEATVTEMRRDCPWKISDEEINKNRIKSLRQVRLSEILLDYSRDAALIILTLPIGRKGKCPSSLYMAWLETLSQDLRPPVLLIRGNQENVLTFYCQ

[2] = target: T2, thiazide-sensitive sodium chloride cotransporter (NCC) (mouse (endogenous in mDCT15 cells and …, UniProt P59158 1-1002)); assay: co-IP; mDCT15 whole cell lysates (about 800 ug protein per column), anti-NCC antibody coupled to resin (Pierce Co-Immunoprecipitation Kit), eluate blotted for αENaC; cells treated with vehicle (EtOH), Aldo (100 nM, 48 hrs), Aldo + SGK1 inhibitor (GSK690394, 6 uM, 60 min) or SGK1 inhibitor alone
T2 construct: thiazide-sensitive sodium-chloride cotransporter (NCC), endogenous in mouse mDCT15 cells and mouse kidney cortex; Precipitated with an anti-NCC antibody coupled to resin (Pierce Co-Immunoprecipitation Kit); source: endogenous, mDCT15 whole cell lysate; endogenous, mouse kidney cortex homogenate
T2 sequence (looked up): T1 sequence (looked up)

[3] = target: T2, thiazide-sensitive sodium chloride …; assay: co-IP; mouse kidney cortex homogenates (RIPA buffer), anti-NCC antibody coupled to resin (Pierce Co-Immunoprecipitation Kit), eluate blotted for αENaC; mice on high salt (4%) chow treated with vehicle (25% DMSO in saline) or Aldo (4 ug/day, 10 d)

Row | two-hybrid luciferase signal, fold of negative control [1] | fold change of αENaC co-precipitated with NCC, Aldo + SGK1 inhibitor against vehicle [2] | fold change of αENaC co-precipitated with NCC, Aldo against vehicle [2] | fold change of αENaC relative to NCC in the CoIP fractions, Aldo against vehicle [2] | fold change of αENaC co-precipitated with NCC, Aldo against vehicle [3] | two-hybrid luciferase signal, fold of negative control, with SGK1 co-transfected [1] | Binder
1 | 4.33 fold change of negative control | – | – | – | – | – | B1
2 | – | 1.55 fold change/vehicle | 2.05 fold change/vehicle | 1.55 fold change/vehicle | 3.07 fold change/vehicle | – | B2
3 | 7.74 fold change of negative control | – | – | – | – | 14.7 fold change of negative control | B3
